The values below come from paper PMC12930380, “Overcoming Ligand Discovery Challenges: Developing Peptide-Based Tracers for SPSB2” (ACS Chemical Biology, 2025).

Bridge positions count the residues as written; N and C are the ends. Square brackets hold non-standard residues; d marks the D form. Primed or numbered codes have the meaning given here. Ends that are not written are not given here. Peptide text beside a SMILES is read from it. * marks the point of attachment. X1 = O=C(CCC1=[N+]2C(=Cc3ccc(-c4ccc[nH]4)n3[B-]2(F)F)C=C1)*; PEG4′ = tetra(ethylene glycol) spacer; PEG4 = NCCOCCOCCOCCOCCC(=O)O; PEG4″ = not defined here

The target of series [1] is T1, hSPSB2^SPRY (Homo sapiens, UniProt Q99619).
T1 construct: Human His6-SPSB2^SPRY (86–219) was expressed as a fusion construct; made in house; host or cells: Escherichia coli BL21(DE3)
T1 sequence (Q99619 26-219 limits assumed): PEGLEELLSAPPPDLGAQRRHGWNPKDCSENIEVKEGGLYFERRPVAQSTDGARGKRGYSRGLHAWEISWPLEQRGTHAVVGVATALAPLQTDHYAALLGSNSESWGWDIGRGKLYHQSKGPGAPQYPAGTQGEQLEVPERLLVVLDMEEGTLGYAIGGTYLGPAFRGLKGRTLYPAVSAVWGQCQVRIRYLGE
The experiment in a line: Differential scanning fluorimetry (thermal shift). Type of series: binding. Conditions: DSF, 50 μM peptide, 5 μM His-hSPSB2^SPRY, 30 mM HEPES pH 7.5, 5% DMSO, mean ± SD (n = 4); for Mean Tm: DMSO control 43.2 ± 0.1. How it is done: For peptide screening, 50 μM peptide was added to 5 μM His-hSPSB2^SPRY diluted in buffer containing 30 mM HEPES pH 7.5, 100 mM NaCl, 1 mM TCEP, 5x SYPRO Orange and 5% DMSO as quadruplicates. Thermal shift analyses were carried out using a QuantStudio 5 Real-Time PCR System (Applied Biosystems) with a temperature gradient ranging from 25 to 95 °C at an increase of 0.05 °C/s. Data analysis was performed by fitting a Boltzmann sigmoidal curve to the raw values using the Protein Thermal Shift software (Applied Biosystems).

Series [2] has as its target T1, hSPSB2^SPRY. Briefly: Surface plasmon resonance single cycle kinetics. As to conditions: immobilized His-hSPSB2^SPRY; for SPR binding behaviour (qualitative): no KD determined; for koff / kon: mean ± SD (n = 3); for koff: read-out: SPR koff (dissociation rate constant); for kon: read-out: SPR kon (association rate constant). The series is classed as binding. How it is done: Surface Plasmon Resonance experiments were conducted on a Biacore T200 instrument with a Series S Sensor Chip CM5 (Cytiva) and 10 mM HEPES pH 7.5, 150 mM NaCl, 0.5 mM TCEP, 0.05% Tween20 and 2% DMSO for the running buffer. His-hSPSB2^SPRY was diluted to 5 μg/mL in Acetate pH 5.5 and immobilized at 10 μL/min to reach 400–700 RU response levels on Flow-channel (FC) 2–4 for triplicates. Immobilization was performed via standard amine coupling procedure by injecting a mixture of 483 mM EDC and […] for activation with a subsequent injection of 1 M ethanolamine for deactivation. FC1 was used as a reference surface without protein-injection. Kinetic titration experiments were performed using a single-cycle kinetics procedure, with five peptide concentrations (0.8 nM to 1 μM) injected for 150 s each at a flow rate of 30 μL/min, followed by a dissociation phase of 600 s. After each peptide titration, multiple buffer injections were performed to reach a stable baseline. Solvent correction and blank injections were also included. After referencing, blank subtraction, and solvent correction, the data were analyzed using the Biacore T200 evaluation software. Sensorgrams with overlaid fit were replotted using GraphPad Prism version 8.0.1.

A further series deals with HCT116 cells. Briefly: CellTiter-Glo cytotoxicity assay. The series is classed as cell-based. Conditions: 0.39 μM to 50 μM, 2 h incubation, 37 °C, n = 6. How it is done:
For cytotoxicity measurements, 10 μL HCT116 cells in Dulbecco’s Modified Eagle Medium (DMEM) were seeded at 2*10^5 cells/mL into a white 384-well-flat-bottom plate. […] Ten μL CellTiter-Glo 2.0 Reagent (Promega) was added to each well, followed by an incubation of 10 min at RT. Luminescence was measured, using a PheraSTAR FSX plate reader. Data was normalized to cells treated with 1% DMSO (100% survival control) and digitonin (0% survival control), then plotted using GraphPad Prism version 8.0.1.

Series [3] has as its target Human His6-SPSB2^SPRY (86–219) (human) (UniProt Q99619). Briefly: differential scanning fluorimetry; 50 μM peptide added to 5 μM His-hSPSB2^SPRY; 30 mM HEPES pH 7.5, 100 mM NaCl, 1 mM TCEP, 5x SYPRO Orange, 5% DMSO; 25 to 95 °C; quadruplicates.
Series [4] has as its target T2, C-terminally Nanoluc-tagged human full length SPSB2 (human, UniProt Q99619 1-263).
T2 construct: source: HCT116, transfected (FuGENE HD), in intact or digitonin-permeabilized cells; not shown: NanoLuc, C-terminal, kept
T2 sequence (looked up): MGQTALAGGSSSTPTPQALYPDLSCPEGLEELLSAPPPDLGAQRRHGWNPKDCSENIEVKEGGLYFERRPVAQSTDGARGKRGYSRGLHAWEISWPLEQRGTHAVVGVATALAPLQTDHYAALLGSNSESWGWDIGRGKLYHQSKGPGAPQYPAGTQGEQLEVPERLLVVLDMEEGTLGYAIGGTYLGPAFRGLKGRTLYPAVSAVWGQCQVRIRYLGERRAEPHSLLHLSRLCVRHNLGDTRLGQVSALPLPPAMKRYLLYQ
The experiment in a line: FRET or BRET; NanoBRET tracer titration, apparent KD; 39 pM - 2.5 μM tracer titrated to intact HCT116 cells transfected with SPSB2-NanoLuc; 2 h at 37 °C. Conditions: one partner purified.

Series [5] deals with T2, C-terminally Nanoluc-tagged human full …. Briefly: FRET or BRET; NanoBRET tracer titration, apparent KD; 39 pM - 2.5 μM tracer titrated to HCT116 cells transfected with SPSB2-NanoLuc and permeabilized with 25 μM digitonin. Conditions: one partner purified.
In series [6] the target is Human His6-SPSB2^SPRY (86–219) (human) (UniProt Q99619). Briefly: SPR.
Series [7] shares this target. Briefly: differential scanning fluorimetry.
Series [8] concerns the target T3, C-terminally Nanoluc-tagged human full length SPSB2 (human, UniProt Q99619 1-263).
T3 construct: also called SPRY domain-containing SOCS box protein 2; source: HCT116, transfected, in intact cells; not shown: NanoLuc, C-terminal, kept
T3 sequence (looked up): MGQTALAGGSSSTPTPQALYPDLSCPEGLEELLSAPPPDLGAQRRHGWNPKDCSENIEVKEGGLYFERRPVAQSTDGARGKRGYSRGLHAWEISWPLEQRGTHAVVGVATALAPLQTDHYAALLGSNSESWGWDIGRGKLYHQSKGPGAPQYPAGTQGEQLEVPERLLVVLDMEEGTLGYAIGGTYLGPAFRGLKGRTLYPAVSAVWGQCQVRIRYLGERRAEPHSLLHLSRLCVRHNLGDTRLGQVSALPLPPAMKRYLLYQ
Briefly: FRET or BRET; NanoBRET displacement in intact HCT116 cells transfected with SPSB2-NanoLuc; 30 nM cyclic TAT tracer, cyclic TAT peptide titrated 6 nM to 50 uM, triplicates. Conditions: one partner purified.

For series [9], the target named is T3, C-terminally Nanoluc-tagged human full …. Briefly: FRET or BRET; NanoBRET displacement in intact HCT116 cells transfected with SPSB2-NanoLuc; 20 nM cyclic TAT tracer, cyclic TAT peptide titrated 6 nM to 50 uM, triplicates (biological replicate). Conditions: one partner purified.

In the case of `CC[C@H](C)[C@H](NC(=O)[C@H](CC(=O)O)NC(=O)[C@@H](NC(=O)CNC(=O)[C@H](CO)NC(=O)CNC(=O)[C@@H]1CSSC[C@H](NC(=O)CCOCCOCCOCCOCCN)C(=O)N[C@@H](Cc2ccc(O)cc2)C(=O)NCC(=O)N[C@@H](CCCNC(=N)N)C(=O)N[C@@H](CCCCN)C(=O)N[C@@H](CCCCN)C(=O)N[C@@H](CCCNC(=N)N)C(=O)N[C@@H](CCCNC(=N)N)C(=O)N[C@@H](CCC(N)=O)C(=O)N[C@@H](CCCNC(=N)N)C(=O)N[C@@H](CCCNC(=N)N)C(=O)N[C@@H](CCCNC(=N)N)C(=O)N1)C(C)C)C(=O)N[C@@H](CC(N)=O)C(=O)N[C@@H](CC(N)=O)C(=O)N[C@@H](CC(N)=O)C(=O)O` [Cyclic TAT peptide] (H-[PEG4]CYGRKKRRQRRRCGSGVDINNN-OH; disulfide 2-14; N-terminus and C-terminus assumed), at hSPSB2^SPRY [1], the ΔTm at 50 µM was found to be 8.1 ± 0.1 °C and the “Mean Tm” value came to 51.4 ± 0.1 °C. The “SPR binding behaviour (qualitative)” value at hSPSB2^SPRY [2] was “non 1:1 binding interaction”. For the same molecule, the “Impact on cell viability (CellTiter-Glo, qualitative)” value with HCT116 cells is recorded as “no impact on cell viability at any tested concentration”.
Regarding `CC[C@H](C)[C@H](NC(=O)[C@H](CC(=O)O)NC(=O)[C@H](CCCCN)NC(=O)[C@H](CCC(=O)O)NC(=O)[C@H](CCC(=O)O)NC(=O)[C@@H](N)CCCCN)C(=O)N[C@@H](CC(N)=O)C(=O)N[C@@H](CC(N)=O)C(=O)N[C@@H](CC(N)=O)C(=O)N[C@H](C(=O)N[C@@H](CCCCN)C(=O)N[C@@H](CCCCN)C(=O)N[C@H](C(=O)O)[C@@H](C)O)C(C)C` [iNOS peptide, reference compound] (H-KEEKDINNNVKKT-OH), the shift in melting temperature (ΔTm) at 50 µM on hSPSB2^SPRY [1] turned out to be 14.1 ± 0.1 °C. Besides, at hSPSB2^SPRY [2], the koff amounted to 0.0024 s⁻¹ and the on-rate constant (kon) came out at 2.9e+06 M⁻¹ s⁻¹.
Consider `CC[C@H](C)[C@H](NC(=O)[C@H](CC(=O)O)NC(=O)[C@@H](NC(=O)CNC(=O)[C@H](CO)NC(=O)CNC(=O)[C@H](CC(=O)O)NC(=O)CNC(=O)[C@H](CCCNC(=N)N)NC(=O)CCOCCOCCOCCOCCN)C(C)C)C(=O)N[C@@H](CC(N)=O)C(=O)N[C@@H](CC(N)=O)C(=O)N[C@@H](CC(N)=O)C(=O)O` [Linear RGD peptide] (H-[PEG4]RGDGSGVDINNN-OH; N-terminus and C-terminus assumed), for which, at hSPSB2^SPRY [1], the thermal shift (ΔTm) at 50 µM amounted to 10.9 ± 0.2 °C and the “Mean Tm” value was determined as 54.1 ± 0.2 °C. For the same molecule, at hSPSB2^SPRY [2], the dissociation rate constant (koff) came out at 0.032 s⁻¹ and the kon was determined as 200000 M⁻¹ s⁻¹.
As for “PEG4-YGRKKRRQRRRGSGVDINNN [Linear TAT peptide]”, at hSPSB2^SPRY [1], the ΔTm was 10.6 ± 0.1 °C and the “Mean Tm” value stood at 53.8 ± 0.1 °C. The “SPR binding behaviour (qualitative)” value on hSPSB2^SPRY [2] is “non 1:1 binding interaction”.
Turning to `CC[C@H](C)[C@H](NC(=O)[C@H](CC(=O)O)NC(=O)[C@@H](NC(=O)CNC(=O)[C@H](CO)NC(=O)CNC(=O)[C@@H]1CSSC[C@H](NC(=O)CCOCCOCCOCCOCCNC(=O)CCC2=[N+]3C(=Cc4ccc(-c5ccc[nH]5)n4[B-]3(F)F)C=C2)C(=O)N[C@@H](Cc2ccc(O)cc2)C(=O)NCC(=O)N[C@@H](CCCNC(=N)N)C(=O)N[C@@H](CCCCN)C(=O)N[C@@H](CCCCN)C(=O)N[C@@H](CCCNC(=N)N)C(=O)N[C@@H](CCCNC(=N)N)C(=O)N[C@@H](CCC(N)=O)C(=O)N[C@@H](CCCNC(=N)N)C(=O)N[C@@H](CCCNC(=N)N)C(=O)N[C@@H](CCCNC(=N)N)C(=O)N1)C(C)C)C(=O)N[C@@H](CC(N)=O)C(=O)N[C@@H](CC(N)=O)C(=O)N[C@@H](CC(N)=O)C(=O)O` [Cyclic TAT tracer] ({X1-PEG4}-CYGRKKRRQRRRCGSGVDINNN-OH; disulfide 1-13), in the series with HCT116 cells, the “Concentration leading to reduced cell survival (CellTiter-Glo)” value is recorded as “above 10 μM”.
[PEG4′]YGRKKRRQRRRGSGVDINNN [linear TAT peptide]: the ΔTm in series [3] turned out to be 10.6 °C.

B1: Cyclic TAT tracer (peptide)
peptide: {BODIPY 576/589-PEG4″}-CYGRKKRRQRRRCGSGVDINNN
modifications: disulfide 1-13
notes: also called fluorophore-tagged cyclic TAT tracer; source: synthetic peptide (custom synthesized by Synpel Chemical, GeneCust and GenScript Biotech)
Regarding B1, the results for the Kd in [4] and in [5] were 86 nM and 346 nM, respectively.
In series [6], [PEG4′]RGDGSGVDINNN [linear RGD peptide] yielded a Kd of 162 nM, an off-rate (koff) of 0.032 s⁻¹ and an on-rate constant (kon) of 200000 M⁻¹ s⁻¹. In addition, the ΔTm in series [7] was determined as 10.9 °C.
[PEG4′]CYGRKKRRQRRRCGSGVDINNN (disulfide 2-14) [cyclic TAT peptide]: the ΔTm in [3] turned out to be 8.1 °C.

B2: cyclic TAT peptide (PEG4-CYGRKKRRQRRRCGSGVDINNN) (peptide)
peptide: [PEG4′]CYGRKKRRQRRRCGSGVDINNN
modifications: disulfide 2-14
notes: also called cyclic TAT peptide variant; source: synthetic peptide (custom synthesized by Synpel Chemical, GeneCust and GenScript Biotech)
As for B2, the 50% effective concentration (EC50) in series [8] is about 386 nM; in [9], about 200 nM.
In [6], KEEKDINNNVKKT [iNOS peptide] returned a Kd of 0.8 nM, a koff of 0.0024 s⁻¹ and a kon of 2.9e+06 M⁻¹ s⁻¹. Besides, the thermal shift (ΔTm) in series [7] is 14.1 °C.
